Values of other authors, collected in article PMC7249735.

System: RGNNV coat protein (RGNNV-CP), MBP fusion (red-spotted grouper nervous necrosis virus (RGNNV))
Conditions: PBS (137 mM NaCl, 2.7 mM KCl, 10 mM Na2HPO4, 1.8 mM KH2PO4, pH 7.4); ELASA 30 min at 4 C after 3% BSA block; sandwich capture in PBS, temperature not stated

In the case of “TGTGTGTCTATTGTCTGTGGTTCATGTCAAGCTTATTTTCCACACACGGT [A10]”, the Kd is listed as 4 nM.
